The source of these data is patent publication EP4810052A2 (Gubra A/S, dated 2026).

Common to all, as to assay: cell-based or functional assay
In test [1] the target is T1, human corticotropin-releasing hormone receptor 1 (human, UniProt P34998 24-415).
T1 sequence (looked up): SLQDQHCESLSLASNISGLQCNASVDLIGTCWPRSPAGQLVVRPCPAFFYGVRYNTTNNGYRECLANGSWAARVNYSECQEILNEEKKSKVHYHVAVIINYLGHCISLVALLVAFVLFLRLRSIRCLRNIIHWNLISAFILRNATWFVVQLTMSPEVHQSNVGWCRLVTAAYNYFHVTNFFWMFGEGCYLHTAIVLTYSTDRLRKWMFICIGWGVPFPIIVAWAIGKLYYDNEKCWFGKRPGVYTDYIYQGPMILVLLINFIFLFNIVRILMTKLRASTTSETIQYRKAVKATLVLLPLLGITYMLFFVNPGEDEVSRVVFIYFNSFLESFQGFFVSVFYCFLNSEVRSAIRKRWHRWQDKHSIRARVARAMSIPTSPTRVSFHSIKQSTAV

For test [2], the target named is T1, human corticotropin-releasing hormone …. This is another data set of the same source.
The target is the same in test [3]. The source holds these as a separate data set.
The target is the same in test [4]. The source holds these as a separate data set.
Another test deals with T2, mouse CRH receptor 1 (mouse, UniProt P35347 24-415).
T2 sequence (looked up): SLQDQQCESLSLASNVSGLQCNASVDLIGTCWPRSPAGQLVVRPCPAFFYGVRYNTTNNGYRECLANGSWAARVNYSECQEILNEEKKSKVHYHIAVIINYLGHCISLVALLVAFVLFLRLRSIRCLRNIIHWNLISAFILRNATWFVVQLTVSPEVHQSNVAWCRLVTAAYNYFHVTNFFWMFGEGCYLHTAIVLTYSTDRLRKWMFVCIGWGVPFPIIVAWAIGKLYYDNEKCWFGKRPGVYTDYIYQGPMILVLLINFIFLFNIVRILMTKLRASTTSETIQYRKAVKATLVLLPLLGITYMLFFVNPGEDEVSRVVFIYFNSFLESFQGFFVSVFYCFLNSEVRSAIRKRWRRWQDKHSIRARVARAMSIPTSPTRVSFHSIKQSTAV

Another test deals with T3, rat CRH receptor 1 (rat, UniProt P35353 24-415).
T3 sequence (looked up): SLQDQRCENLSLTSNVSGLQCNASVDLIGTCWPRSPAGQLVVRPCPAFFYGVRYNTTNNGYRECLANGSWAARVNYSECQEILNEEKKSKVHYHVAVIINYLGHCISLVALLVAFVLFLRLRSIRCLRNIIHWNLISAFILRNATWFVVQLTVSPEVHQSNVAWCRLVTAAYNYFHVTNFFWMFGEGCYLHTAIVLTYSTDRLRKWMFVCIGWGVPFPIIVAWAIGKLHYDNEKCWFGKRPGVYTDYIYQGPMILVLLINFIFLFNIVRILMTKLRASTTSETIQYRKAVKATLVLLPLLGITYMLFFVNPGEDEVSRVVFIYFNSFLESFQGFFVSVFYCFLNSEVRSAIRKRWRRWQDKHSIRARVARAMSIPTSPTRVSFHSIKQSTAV

The next test has as its target porcine CRH receptor 1 (pig).

Read-outs that look alike come from different tables or passages of the source. Starred links: 1 amine or outer side, 2 acyl side, 3 side chain; linkers in the order of their positions; H or OH if unused. Non-standard residues stand in square brackets, D forms with d. Groups on a side chain read outwards from the residue. No end group written: not given here. *: point of attachment. C20 diacid = O=C(O)CCCCCCCCCCCCCCCCCCC(=O)*; γGlu = O=C(O)[C@H](CCC(=O)[*:2])N[*:1]; NMeI = CC[C@H](C)[C@H](NC)C(=O)O; Nle = CCCC[C@H](N)C(=O)O; lip = not defined here; AEEA = NCCOCCOCC(=O)O; Aib = CC(C)(N)C(=O)O

With IVLSLDVPIGLLQILLEQARARAAREQAK(lip)ENAEILAEV-NH2 (not fully specified; reading uncertain) [SEQ ID NO: 17], the “hCRHR1 EC50 (nM); HTRF cAMP assay, CHO-K1 cells stably expressing hCRHR1” value (shortened to “hCRHR1 EC50 (nM); HTRF cAMP assay”) in test [1] was more than 5000 nM.

With IVLSLDVPIGLLQILLEQARARAAREQAK(lip)TNAEILAEV-NH2 (not fully specified; reading uncertain) [SEQ ID NO: 3 (Lipidated UCN2 with X^36 = E; X^40 = E) (reference 1)], the “hCRHR1 EC50 (nM); HTRF cAMP assay” value in test [2], in test [1] and in test [3] was more than 5000 nM throughout. Besides, the “Stable EC50 (nM), hCRHR1; cAMP assay, stable CHO-K1 cells” value (“Stable EC50 (nM), hCRHR1; cAMP assay” for short) in test [4] was more than 5000 nM. Also, in test [4], the “Transient cell system EC50 (nM), hCRHR1; cAMP assay, transiently transfected CHO-K1 cells” value (shortened to “Transient cell system EC50 (nM), hCRHR1”) was more than 1000 nM. Also, in the test with mouse CRH receptor 1, the “Transient cell system EC50 (nM), mCRHR1; cAMP assay, transiently transfected CHO-K1 cells” value (shortened to “Transient cell system EC50 (nM), mCRHR1”) was determined as 44 nM. Also, the “Transient cell system EC50 (nM), rCRHR1; cAMP assay, transiently transfected CHO-K1 cells” value (shortened to “Transient cell system EC50 (nM), rCRHR1”) in the test with rat CRH receptor 1 is 163 nM. Further, the “Transient cell system EC50 (nM), pCRHR1; cAMP assay, transiently transfected CHO-K1 cells” value (shortened to “Transient cell system EC50 (nM), pCRHR1”) in the test with porcine CRH receptor 1 was more than 5000 nM.

B1: SEQ ID NO: 238, PVLSLDVPIGLLQILLSQARARAAREQA[K*][Aib]NAEI[Nle]AEV(NH2) (peptide)
peptide: PVLSLDVPIGLLQILLSQARARAAREQAK[Aib]NAEI[Nle]AEV-NH2
modifications: not fully specified (residue 29); printed as PVLSLDVPIGLLQILLSQARARAAREQA[K*][Aib]NAEI[Nle]AEV(NH_2); also: lipid and spacer on Lys29 not given here
In the case of B1, the “hCRHR1 EC50 (nM); HTRF cAMP assay” value in test [3] is more than 5000 nM. Moreover, in test [4], the “Stable EC50 (nM), hCRHR1; cAMP assay” value was more than 5000 nM and the “Transient cell system EC50 (nM), hCRHR1” value was more than 5000 nM. In addition, the “Transient cell system EC50 (nM), mCRHR1” value with mouse CRH receptor 1 worked out at 323 nM. Moreover, the “Transient cell system EC50 (nM), rCRHR1” value with rat CRH receptor 1 was more than 1000 nM. Further, the “Transient cell system EC50 (nM), pCRHR1” value in the test with porcine CRH receptor 1 was more than 5000 nM.

B2: SEQ ID NO: 19 (peptide)
peptide: IVLSLDVPIGLLQILLEQARARAAREQAK[Aib]NAEILAEV-NH2
modifications: not fully specified (residue 29); also: lipid and spacer on Lys29 not given here
In the case of B2, in test [1], the “hCRHR1 EC50 (nM); HTRF cAMP assay” value is more than 5000 nM.

B3: SEQ ID NO: 215, [MeI]VLSLDVPIGLLQILLSQARARAAREQA[K*]TN[Aib]EI[Nle]AEV(NH2) (peptide)
peptide: [NMeI]VLSLDVPIGLLQILLSQARARAAREQAK([AEEA-AEEA-γGlu-γGlu-C20 diacid])TN[Aib]EI[Nle]AEV-NH2
modifications: not fully specified; printed as [MeI]VLSLDVPIGLLQILLSQARARAAREQA[K*]TN[Aib]EI[Nle]AEV(NH_2)
Consider B3, for which the “hCRHR1 EC50 (nM); HTRF cAMP assay” value in test [3] is more than 5000 nM. Also, in test [4], the “Stable EC50 (nM), hCRHR1; cAMP assay” value is more than 5000 nM and the “Transient cell system EC50 (nM), hCRHR1” value was 826 nM. In the test with mouse CRH receptor 1, the “Transient cell system EC50 (nM), mCRHR1” value was found to be 50 nM. Also, in the test with rat CRH receptor 1, the “Transient cell system EC50 (nM), rCRHR1” value amounted to 175 nM. In the test with porcine CRH receptor 1, the “Transient cell system EC50 (nM), pCRHR1” value was more than 1000 nM.

B4: SEQ ID NO: 6, [MeI]VLSLDVPIGLLQILLEQARARAAREQAT[K*]NAEILAEV(NH2) (peptide)
peptide: [NMeI]VLSLDVPIGLLQILLEQARARAAREQATKNAEILAEV-NH2
modifications: not fully specified (residue 30); printed as [MeI]VLSLDVPIGLLQILLEQARARAAREQAT[K*]NAEILAEV(NH_2); also: lipid and spacer on Lys30 not given here
Turning to B4, the “hCRHR1 EC50 (nM); HTRF cAMP assay” value in test [2] is more than 5000 nM. Also, in test [1], the “hCRHR1 EC50 (nM); HTRF cAMP assay” value is more than 5000 nM. Also, in test [4], the “Stable EC50 (nM), hCRHR1; cAMP assay” value is more than 5000 nM and the “Transient cell system EC50 (nM), hCRHR1” value was more than 1000 nM. The “Transient cell system EC50 (nM), mCRHR1” value with mouse CRH receptor 1 is 71 nM. Also, the “Transient cell system EC50 (nM), rCRHR1” value with rat CRH receptor 1 came out at 275 nM. Further, in the test with porcine CRH receptor 1, the “Transient cell system EC50 (nM), pCRHR1” value is more than 5000 nM.

As for [NMeI]VLSLDVPIGLLQILLEQARARAAREQAK(lip)ENAEILAEV-NH2 (reading uncertain) [SEQ ID NO: 18], the “hCRHR1 EC50 (nM); HTRF cAMP assay” value in test [1] is more than 5000 nM.

B5: SEQ ID NO: 20 (peptide)
peptide: [NMeI]VLSLDVPIGLLQILLEQARARAAREQAK[Aib]NAEILAEV-NH2
modifications: not fully specified (residue 29); also: lipid and spacer on Lys29 not given here
Turning to B5, in test [1], the “hCRHR1 EC50 (nM); HTRF cAMP assay” value was more than 5000 nM.

B6: SEQ ID NO: 16, [MeI]VLSLDVPIGLLQILLEQARARAAREQA[K*]TN[Aib]EILAEV(NH2) (peptide)
peptide: [NMeI]VLSLDVPIGLLQILLEQARARAAREQAK(lip)TN[Aib]EILAEV-NH2
modifications: reading uncertain; also: printed as [MeI]VLSLDVPIGLLQILLEQARARAAREQA[K*]TN[Aib]EILAEV(NH2)
B6: the “hCRHR1 EC50 (nM); HTRF cAMP assay” value in test [1] was more than 5000 nM. Moreover, in test [4], the “Stable EC50 (nM), hCRHR1; cAMP assay” value was more than 5000 nM and the “Transient cell system EC50 (nM), hCRHR1” value was more than 1000 nM. Further, the “Transient cell system EC50 (nM), mCRHR1” value in the test with mouse CRH receptor 1 turned out to be 76 nM. For the same molecule, the “Transient cell system EC50 (nM), rCRHR1” value in the test with rat CRH receptor 1 is 256 nM. Also, the “Transient cell system EC50 (nM), pCRHR1” value with porcine CRH receptor 1 was more than 5000 nM.
